Data on one protein can be found in patent US20250250608A1, “METHODS AND COMPOSITIONS FOR ASSAYING BETA-HEXOSAMINIDASE ENZYMATIC ACTIVITY VIA MASS SPECTROMETRY” (GelbChem, LLC, priority 2024, published 2025).

Substrate in this series: CC(=O)NC1C(Oc2ccc(NC(=O)CCN(CCCCNC(=O)c3ccccc3)C(=O)OC(C)(C)C)cc2)OC(COS(=O)(=O)O)C(O)C1O
In words: Enzyme kinetics of HexA with the HexA substrate, endogenous enzyme from healthy adult dried blood spots, LC-MS/MS detection. Format: biochemical. The conditions noted are these: other: endogenous enzyme from healthy adult dried blood spots. The protocol: 3.2 mm punches were taken from dried blood samples. The punches were added into a well of a multiwell plate and in particular, a 1.0 mL deep-well 96-well plate. Following, 30 μL of the duplex assay cocktail described above was added to each well. The plate was sealed with a silicone sealing mat and shaken at 250 rpm for 4 hours at 37° C. in an orbital shaker incubator. After incubation, the enzymatic reaction was quenched by adding 100 μL of methanol: ethyl acetate (1:1) and mixed by pipetting up and down ˜10 times. Analytes were extracted by adding sodium chloride solution (0.5 M, 200 μL) and ethyl acetate (400 μL) to each well and mixed by pipetting up and down ˜10 times. […]
Analytes were detected via a WATERS™ Xevo TQ triple-quadrupole mass spectrometer. […] The following MRM traces were monitored for quantitation: HexA enzymatic reaction product (456.5>356.1), HexA/B enzymatic reaction product (461.5>361.2), and internal standard (465.5>357.1). […]
Enzyme kinetics of HexA and HexA/B were measured in relationship to the HexA substrate and HexA/B substrate, respectively, using endogenous enzymes from healthy adult dried blood spots. […]
The reaction rate for each substrate at different substrate concentrations was measured and the relationship found to be hyperbolic.

B1: HexA (Homo sapiens) (protein)
chain: TLEKNVLVVSVVTPGCNQLPTLESVENYTLTINDDQCLLLSETVWGALRGLETFSQLVWKSAEGTFFINKTEIEDFPRFPHRGLLLDTSRHYLPLSSILDTLDVMAYNKLNVFHWHLVDDPSFPYESFTFPELMRKGSYNPVTHIYTAQDVKEVIEYARLRGIRVLAEFDTPGHTLSWGPGIPGLLTPCYSGSEPSGTFGPVNPSLNNTYEFMSTFFLEVSSVFPDFYLHLGGDEVDFTCWKSNPEIQDFMRKKGFGEDFKQLESFYIQTLLDIVSSYGKGYVVWQEVFDNKVKIQPDTIIQVWREDIPVNYMKELELVTKAGFRALLSAPWYLNRISYGPDWKDFYIVEPLAFEGTPEQKALVIGGEACMWGEYVDNTNLVPRLWPRAGAVAERLWSNKLTSDLTFAYERLSHFRCELLRRGVQAQPLNVGFCEQEFEQT
notes: using endogenous enzymes from healthy adult dried blood spots; from tissue; host or cells: dried blood spots from healthy adults/individuals (3.2 mm punches)
As for B1, the Km is given as 4,051 μM.
